The record followed here is US20160075781A1 (IMMUNOGEN, published 2016).

First the molecules themselves.
B1: huMov19-PEG4-mal-DM4 (antibody, V domains shown)
VH: QVQLVQSGAEVVKPGASVKISCKASGYTFTGYFMNWVKQSPGQSLEWIGRIHPYDGDTFYNQKFQGKATLTVDKSSNTAHMELLSLTSEDFAVYYCTRYDGSRAMDYWGQGTTVTVSS
VL: DIVLTQSPLSLAVSLGQPAIISCKASQSVSFAGTSLMHWYHQKPGQQPRLLIYRASNLEAGVPDRFSGSGSKTDFTLNISPVEAEDAATYYCQQSREYPYTFGGGTKLEIKR
modifications: maytansinoid DM4 attached through the PEG4-mal linker; residues and chain not stated
B2: muFR1-21 PEG4-mal-DM4 conjugate (antibody, mouse IgG2b, kappa, V domains shown)
VH: EVKLVESGGDLVKPGGSLKLSCAASGFTFSSYGMSWVRQTPDKRLECVATISSGGSYTYYPDGVKGRFTISRDNAKNTLYLQMSSLKSEDTAMYYCARDGEGGLYAMDYWGQGTSVTVSS
VL: DIQMTQSSSYLSVSLGGRVTITCKASDHINNWLAWYQQKPGNAPRLLISGATSLETGVPSRFSGSGSGKDYTLSISSLQTEDVATYYCQQYWSTPFTFGSGTKLEIKR
modifications: DM4 linked through PEG4-mal; sites not given
B3: huFR1-21-PEG4-mal-DM4 (antibody, human IgG1, kappa, V domains shown)
VH: EVQLVESGGDVVKPGGSLKLSCAASGFTFSSYGMSWVRQTPGKGLECVATISSGGSYTYYSPGFQGRFTISRDKSKNTLYLQMSSLKAEDTAMYYCARDGEGGLYAMDYWGQGTSVTVSS
VL: DIQMTQSSSSLSVSVGGRVTITCKASDHINNWLAWYQQKPGKAPKLLISGATSLETGVPSRFSGSGSGKDYTLSISSLQPEDVATYYCQQYWSTPFTFGQGTKLEIKR
modifications: maytansinoid DM4 attached through the PEG4-mal linker; residues and chain not stated
B4: huMov19 (antibody, V domains shown)
VH: QVQLVQSGAEVVKPGASVKISCKASGYTFTGYFMNWVKQSPGQSLEWIGRIHPYDGDTFYNQKFQGKATLTVDKSSNTAHMELLSLTSEDFAVYYCTRYDGSRAMDYWGQGTTVTVSS
VL: DIVLTQSPLSLAVSLGQPAIISCKASQSVSFAGTSLMHWYHQKPGQQPRLLIYRASNLEAGVPDRFSGSGSKTDFTLNISPVEAEDAATYYCQQSREYPYTFGGGTKLEIKR
notes: Resurfaced humanized Mov19, full IgG1/kappa; also called humanized Mov19
B5: muFR1-13 (antibody, V domains shown)
VH: QVQLKESGPDLVAPSQSLSITCTVSGFSLSRYSVHWIRQPPGKGLEWLGMIWSGGNTDYNSVFKSRLNITKDNSKSQVFLKMNSLQTDDTAIYYCATFDGKVSWFAYWGQGTLVTVSA
VL: SIVMTQTPKFLLVSTGDRFTITCKASQSVSNDVLWYQQKPGQSPKLLIYYAYNRYSGVPDRFTGSGYGTDFTFTITTVQSEDLAVYFCQQDHSSPFTFGSGTKLEIKR
B6: muFR1-9 (antibody, V domains shown)
VH: QVQLVESGGGLVQPGGSRKLSCAASGFTFSSFGMHWVRQAPEKGLEWVAYISSGSSTFYYADTVKGRFTISRDNPKNTLFLQMTSLRSEDTAMYYCAKELTGTFAYWGQGTLVTVSA
VL: DIVLTQSPATLSVTPGDSVSLSCRASQSINNNLHWYQQKSHESPRLLIKYASQSISGIPSRFSGSGSGTDFTLSINSVETEDFGMYFCQQSNSWPQVTFGAGTKLELKR
B7: muFR1-21 (antibody, mouse IgG2b, kappa, V domains shown)
VH: EVKLVESGGDLVKPGGSLKLSCAASGFTFSSYGMSWVRQTPDKRLECVATISSGGSYTYYPDGVKGRFTISRDNAKNTLYLQMSSLKSEDTAMYYCARDGEGGLYAMDYWGQGTSVTVSS
VL: DIQMTQSSSYLSVSLGGRVTITCKASDHINNWLAWYQQKPGNAPRLLISGATSLETGVPSRFSGSGSGKDYTLSISSLQTEDVATYYCQQYWSTPFTFGSGTKLEIKR
notes: murine anti-FOLR1 antibody; also called murine FR1-21
B8: huFR1-21 (antibody, human IgG1, kappa, V domains shown)
VH: EVQLVESGGDVVKPGGSLKLSCAASGFTFSSYGMSWVRQTPGKGLECVATISSGGSYTYYSPGFQGRFTISRDKSKNTLYLQMSSLKAEDTAMYYCARDGEGGLYAMDYWGQGTSVTVSS
VL: DIQMTQSSSSLSVSVGGRVTITCKASDHINNWLAWYQQKPGKAPKLLISGATSLETGVPSRFSGSGSGKDYTLSISSLQPEDVATYYCQQYWSTPFTFGQGTKLEIKR
notes: unconjugated humanized FR1-21; also called humanized FR1-21
B9: huFR1-57 (antibody, human IgG1, kappa, V domains shown)
VH: EVQLVESGGGLVQPGGSRRLSCAASGFTFSSFGMHWVRQAPGKGLEWVAYISSGSSTISYADSVKGRFTISRDNSKKTLLLQMTSLRAEDTAMYYCAREAYGSSMEYWGQGTLVTVSS
VL: EIVLTQSPATLSVTPGDRVSLSCRASQNINNNLHWYQQKPGQSPRLLIKYVSQSVSGIPDRFSGSGSGTDFTLSISSVEPEDFGMYFCQQSNSWPHYTFGQGTKLEIKR
B10: huFR1-65 (antibody, human IgG1, kappa, V domains shown)
VH: QVQLVQSGAEVAKPGASVKMSCKASGYTFTSYTMHWVKQRPGQGLAWIGYINPISGYTNYNQKFQGKATLTADKSSSTAYMQLNSLTSEDSAVYYCASGGAYGRKPMDYWGQGTSVTVSS
VL: EIVMTQSPATMSTSPGDRVSVTCKASQNVGPNVAWYQQKPGQSPRALIYSASYRYSGVPARFTGSGSGTDFTLTISNMQSEDLAEYFCQQYNSYPYTFGQGTKLEIKR
B11: huFR1-48 (antibody, human IgG1, kappa, V domains shown)
VH: QVQLVQSGAEVAKPGASVKLSCKASGYTFTNYWMQWIKQRPGQGLEWIGAIYPGNGDSRYTQKFQGKATLTADKSSSTAYMQVSSLTSEDSAVYYCARRDGNYAAYWGQGTLVTVSA
VL: DIQMTQSPSSLSVSVGERVTITCRASENIYSNLAWYQQKPGKSPKLLVYAATNLADGVPSRFSGSESGTDYSLKINSLQPEDFGSYYCQHFWASPYTFGQGTKLEIKR
B12: huFR1-49 (antibody, human IgG1, kappa, V domains shown)
VH: QVQLQQSGAVVAKPGASVKMSCKASGYTFTNYWMYWIKQRPGQGLELIGAIYPGNSDTTYNQKFQGKATLTAVTSANTVYMEVSSLTSEDSAVYYCTKRHDYGAMDYWGQGTSVTVSS
VL: DIQMTQSPSSLSVSVGERVTITCRASENIYTNLAWYQQKPGKSPKLLVYTASNLADGVPSRFSGSGSGTDYSLKINSLQPEDFGTYYCQHFWVSPYTFGQGTKLEIKR

The first experiment deals with T1, human folate receptor 1 (human, UniProt P15328 25-234). Put plainly: cell-based or functional assay.
T1 sequence (P15328 25-234 limits assumed): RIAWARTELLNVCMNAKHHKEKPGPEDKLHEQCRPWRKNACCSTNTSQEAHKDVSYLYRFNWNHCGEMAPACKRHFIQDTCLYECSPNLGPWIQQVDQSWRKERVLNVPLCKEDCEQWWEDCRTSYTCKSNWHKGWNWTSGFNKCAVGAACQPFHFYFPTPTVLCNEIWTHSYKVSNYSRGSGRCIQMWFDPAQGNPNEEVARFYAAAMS
For the molecule B1, the “IC50, cytotoxic activity of the PEG4-mal-DM4 conjugate on KB cells, continuous exposure (WST-8 survival)” value (shortened to “IC50, cytotoxic activity”) came out at 0.15 nM.

On to B2, for which the “IC50, cytotoxic activity” value came out at 0.1 nM.

Regarding B3, the “IC50, cytotoxic activity” value came out at 0.1 nM.

The next experiment deals with T1, human folate receptor 1. Put plainly: flow cytometry on FOLR1-expressing SKOV3 cells; apparent Kd from the fit of MFI against antibody concentration. Here is the method:
Binding affinities of anti-FOLR1 antibodies and of their SPDB-DM4, PEG4Mal-DM4, SMCC-DM1, or anti-FOLR1-sulfo-SPDB-DM4 conjugates were assayed by Flow Cytometry. FOLR1-expressing SKOV3 cells were incubated with varying concentrations of anti-FOLR1 antibodies or their conjugates and processed as described above for flow cytometry analysis. Data analysis was performed using CellQuest Pro (BD Biosciences, San Diego, US) and for each sample the mean fluorescence intensity for FL1 (MFI) was exported and plotted against the antibody concentration in a semi-log plot. A dose-response curve was generated by non-linear regression and the value for the apparent equilibrium dissociation constant (Kd) of the test-samples for the binding to SKOV3 cells was calculated using GraphPad Prism v4 (GraphPad software, San Diego, Calif.) and presented in FIG. 5.
(A flow cytometer gives signals particle by particle.)
Regarding B4, the Kd is 0.07 nM.

For the molecule B5, the Kd amounted to 0.66 nM.

B6: the Kd amounted to 0.13 nM.

Consider B7, for which the Kd worked out at 0.07 nM.

As to B8, the Kd worked out at 0.07 nM.

The target of the next experiment is T1, human folate receptor 1. Nature of the experiment: apparent affinity, flow cytometry on FOLR1-expressing cells ('as described above'; cell line not named in Example 19, SKOV3 in Example 13).
Turning to B4, the Kd was determined as 0.06 nM.

Turning to B9, the Kd stood at 0.14 nM.

For B10, the Kd turned out to be 0.15 nM.

For B11, the Kd turned out to be 0.13 nM.

For B12, the Kd amounted to 0.08 nM.
